Three molecules from PMC12756002, “Mutations in Hsp40 co-chaperone change the canonical interdomain interactions stimulating LGMDD1 myopathy” (The Journal of Biological Chemistry, 2025) can be followed below.

The target in one test is T1, full-length Rnq1 (yeast, UniProt P25367 1-405).
T1 construct: also called FL Rnq1; Rnq1-WT
T1 sequence (looked up): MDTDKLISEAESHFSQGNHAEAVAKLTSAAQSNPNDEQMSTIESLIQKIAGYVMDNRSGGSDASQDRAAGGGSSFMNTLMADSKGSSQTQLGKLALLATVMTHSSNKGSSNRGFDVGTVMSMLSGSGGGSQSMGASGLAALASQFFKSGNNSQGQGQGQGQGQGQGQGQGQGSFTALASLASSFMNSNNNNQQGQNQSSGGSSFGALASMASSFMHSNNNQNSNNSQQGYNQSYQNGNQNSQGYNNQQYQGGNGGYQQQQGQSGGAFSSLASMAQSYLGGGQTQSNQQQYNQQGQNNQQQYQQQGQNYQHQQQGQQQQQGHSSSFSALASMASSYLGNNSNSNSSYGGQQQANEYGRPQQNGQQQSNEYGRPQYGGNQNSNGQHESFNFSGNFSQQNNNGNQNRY
The test is described as follows: ELISA; denatured substrate (FL Rnq1 or ΔN Rnq1 400 ng, luciferase 100 ng) immobilised in microtiter wells; dilutions of Sis1-WT or mutants (0-20 or 0-25 nM) in PBS-T with 0.5% BSA, overnight at room temperature; retained Sis1 detected with an anti-Sis1 antibody. Conditions: both partners purified.

A further test addresses T2, Ssa1-WT (yeast, UniProt P10591 1-642).
T2 construct: Ssa1, yeast Hsp70; Cloned into pPROEx-Htb; cleavage of the tag follows from 'the remaining purification steps were analogous to those for Sis1-WT'; also called Hsp70; source: E. coli Rosetta 2(DE3), purified (Talon resin, steps analogous to Sis1)
The test is described as follows: ELISA; Ssa1 (200 nM) immobilised in microtiter wells; dilutions of Sis1-WT or mutants (0-50 nM); bound Sis1 detected with an anti-Sis1 antibody; no client. Conditions: both partners purified.

T2 sequence (P10591 whole entry): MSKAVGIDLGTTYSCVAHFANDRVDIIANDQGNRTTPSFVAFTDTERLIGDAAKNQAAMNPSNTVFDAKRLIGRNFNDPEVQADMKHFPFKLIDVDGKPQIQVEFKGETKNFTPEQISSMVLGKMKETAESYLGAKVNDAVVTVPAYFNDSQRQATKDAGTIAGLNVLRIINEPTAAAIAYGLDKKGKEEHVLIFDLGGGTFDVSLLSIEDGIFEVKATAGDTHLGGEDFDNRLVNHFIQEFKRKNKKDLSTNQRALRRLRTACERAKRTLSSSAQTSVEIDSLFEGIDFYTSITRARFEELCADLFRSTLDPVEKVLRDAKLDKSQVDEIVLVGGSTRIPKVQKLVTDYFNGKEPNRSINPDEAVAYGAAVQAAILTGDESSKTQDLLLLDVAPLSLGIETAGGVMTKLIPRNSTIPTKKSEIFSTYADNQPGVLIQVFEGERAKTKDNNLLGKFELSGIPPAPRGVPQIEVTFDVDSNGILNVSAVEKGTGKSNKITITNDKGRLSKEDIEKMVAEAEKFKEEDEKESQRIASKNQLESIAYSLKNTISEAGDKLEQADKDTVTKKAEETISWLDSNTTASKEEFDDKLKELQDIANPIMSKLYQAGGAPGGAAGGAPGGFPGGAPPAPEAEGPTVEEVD

B1: Sis1-E53A (natural protein, yeast, UniProt P25294 1-352, looked up)
chain: MVKETKLYDLLGVSPSANEQELKKGYRKAALKYHPDKPTGDTEKFKEISEAFAILNDPQKREIYDQYGLEAARSGGPSFGPGGPGGAGGAGGFPGGAGGFSGGHAFSNEDAFNIFSQFFGGSSPFGGADDSGFSFSSYPSGGGAGMGGMPGGMGGMHGGMGGMPGGFRSASSSPTYPEEETVQVNLPVSLEDLFVGKKKSFKIGRKGPHGASEKTQIDIQLKPGWKAGTKITYKNQGDYNPQTGRRKTLQFVIQEKSHPNFKRDGDDLIYTLPLSFKESLLGFSKTIQTIDGRTLPLSRVQPVQPSQTSTYPGQGMPTPKNPSQRGNLIVKYKVDYPISLNDAQKRAIDENF
notes: Sis1, essential yeast DNAJ (Hsp40) protein, with the J-domain mutation E53A; also called homologous to DNAJB6-E54A; LGMDD1 J-domain mutant; source: E. coli Lemo21(DE3), purified (Talon cobalt resin, TEV cleavage, second Talon pass)
As to B1, the binding result in the test with full-length Rnq1 and with Ssa1-WT was “binds” each time.

B2: Sis1-S49V (natural protein, yeast, UniProt P25294 1-352, looked up)
chain: MVKETKLYDLLGVSPSANEQELKKGYRKAALKYHPDKPTGDTEKFKEIVEAFEILNDPQKREIYDQYGLEAARSGGPSFGPGGPGGAGGAGGFPGGAGGFSGGHAFSNEDAFNIFSQFFGGSSPFGGADDSGFSFSSYPSGGGAGMGGMPGGMGGMHGGMGGMPGGFRSASSSPTYPEEETVQVNLPVSLEDLFVGKKKSFKIGRKGPHGASEKTQIDIQLKPGWKAGTKITYKNQGDYNPQTGRRKTLQFVIQEKSHPNFKRDGDDLIYTLPLSFKESLLGFSKTIQTIDGRTLPLSRVQPVQPSQTSTYPGQGMPTPKNPSQRGNLIVKYKVDYPISLNDAQKRAIDENF
notes: Sis1, essential yeast DNAJ (Hsp40) protein, with the J-domain mutation S49V; also called homologous to DNAJB6-A50V; LGMDD1 J-domain mutant; source: E. coli Lemo21(DE3), purified (Talon cobalt resin, TEV cleavage, second Talon pass)
Regarding B2, the binding result with full-length Rnq1 and in the test with Ssa1-WT was “binds” in each case.

B3: Sis1-N56L (natural protein, yeast, UniProt P25294 1-352, looked up)
chain: MVKETKLYDLLGVSPSANEQELKKGYRKAALKYHPDKPTGDTEKFKEISEAFEILLDPQKREIYDQYGLEAARSGGPSFGPGGPGGAGGAGGFPGGAGGFSGGHAFSNEDAFNIFSQFFGGSSPFGGADDSGFSFSSYPSGGGAGMGGMPGGMGGMHGGMGGMPGGFRSASSSPTYPEEETVQVNLPVSLEDLFVGKKKSFKIGRKGPHGASEKTQIDIQLKPGWKAGTKITYKNQGDYNPQTGRRKTLQFVIQEKSHPNFKRDGDDLIYTLPLSFKESLLGFSKTIQTIDGRTLPLSRVQPVQPSQTSTYPGQGMPTPKNPSQRGNLIVKYKVDYPISLNDAQKRAIDENF
notes: Sis1, essential yeast DNAJ (Hsp40) protein, with the J-domain mutation N56L; also called homologous to DNAJB6-S57L; LGMDD1 J-domain mutant; source: E. coli Lemo21(DE3), purified (Talon cobalt resin, TEV cleavage, second Talon pass)
As for B3, the binding result in the test with full-length Rnq1 and in the test with Ssa1-WT was “binds” in each case.
